Experimental data taken from patent publication US20230093399A1, “METHODS FOR GENERATING PLURIPOTENT STEM CELL-DERIVED BROWN FAT CELLS” (AgeX Therapeutics, Inc., priority 2013, published 2023).

Assays:
[1] = tested on: cell line E3; test: Differentiation of clonal hEP cell line E3 in HyStem beads, Illumina microarray gene expression; assay type: cell-based, human; settings: E3
Experimental: (§1) Differentiation medium is high glucose DMEM (CellGro Cat. No. 15-013-CV) with Pyruvate, 1 mM (Gibco Cat. 11360), Pen:Strep 100U/ml:100 ug/ml (Gibco Cat. No. 504284), Glutamax 2 mM (Gibco Cat. No. 35050), Dexamethasone 0.1 uM (Sigma, St. Louis, Mo., Cat. No. D1756-100), L-Proline 0.35 mM (Sigma Cat. No. D49752), 2-phospho-L-Ascorbic Acid 0.17 mM (Sigma, Cat. No. 49792, Fluka), and ITS Premix (BD, Franklin Lakes, N.J., sterile Cat. No. 47743-628) with a final concentration 6.25 ug/ml insulin, 6.25 ug/ml transferrin, 6.25 ng/ml selenious acid, serum albumin 1.25 mg/ml, 5.35 ug/ml linoleic acid. In various differentiation conditions, the Differentiation medium is supplemented with various growth factors or other differentiation factors as described herein.
(§2) The Gelin-S® component (10 mg of thiol-modified gelatin (BioTime)) is dissolved in 1.0 ml of degassed deionized water to prepare a 1% w/v solution, and polyethylene glycol diacrylate (10 mg of PEGDA) is dissolved in 0.5 ml of degassed deionized water to prepare a 2% w/v solution. Then, HyStem (1 ml, 1% w/v) is mixed with Gelin-S (1 ml, 1% w/v) immediately before use. Pelleted cells are resuspended in the recently prepared HyStem:Gelin-S (1:1 v/v) mix described above. Upon the addition of the PEGDA cross-linker, the cell suspension, at a final concentration of 2.0×10^7 cells/ml is aliquoted (25 μl/aliquot) into six-well plates (Corning® 3516; VWR, PA, USA) after partial gelation. Following complete gelation (20 min), Differentiation Medium is added to each well. Plates were then placed in a humidified incubator at 37° C. with ambient O2 and 10% CO2, and the cells were fed three-times weekly. At the desired time point, hydrogel constructs were either fixed and processed for immunohistochemical analysis or lysed using RLT (Qiagen, CA, USA) with 1% beta-mercaptoethanol for total RNA to analyze transcript expression using quantitative real-time PCR (qRT-PCR) and/or whole-genome microarray.
(§3) Total RNA was extracted directly from cells growing in 6-well plates or 10 cm tissue culture dishes using Qiagen RNeasy mini kits according to the manufacturer's instructions. RNA concentrations were measured using a Beckman DU530 or Nanodrop spectrophotometer and RNA quality was determined by denaturing agarose gel electrophoresis or using an Agilent 2100 bioanalyzer. Whole-genome expression analysis was carried out using Illumina Human Ref-8v3 or Human HT-12 v4 BeadArrays, and RNA levels for certain genes were confirmed by qRT-PCR. For the Illumina BeadArrays, total RNA was linearly amplified and biotin-labeled using Illumina TotalPrep kits (Life Technologies, Temecula, Calif., USA), and cRNA was quality-controlled using an Agilent 2100 Bioanalyzer. The cRNA was hybridized to Illumina BeadChips, processed, and read using a BeadStation array reader according to the manufacturer's instructions (Illumina, San Diego, Calif., USA). Values of less than 120 relative fluorescence units (RFUs) were considered as nonspecific background signal.

[2] = tested on: NP110SM cells; test: Differentiation of clonal embryonic progenitor line NP110SM in HyStem beads, Illumina microarray gene expression; assay type: cell-based, human
Experimental: as §1
as §2, with “HyStem-C (BioTime, Inc. Alameda, Calif.) is a matrix composed of thiol-modified gelatin and thiolated hyaluronan crosslinked in vivo or in vitro with (polyethylene glycol diacrylate (PEGDA). We observed that clonal human embryonic progenitor cell lines such as those described in the present invention, could be efficiently differentiated in high-density cultures of said crosslinked collagen and hyaluronate in the following manner. HyStem-C® (BioTime, CA, USA) is reconstituted following the manufacturer's instructions. Briefly, the HyStem component (10 mg of thiol-modified hyaluronan) is dissolved in 1.0 ml of degassed deionized water for approximately 20 min to prepare a 1% w/v solution. The Gelin-S®” for “The Gelin-S®”
as §3
The line NP110SM was then exposed to differentiation in the BAT cell differentiation protocols described herein. […]

[3] = NP110SM, 14 days HyStem beads, 50 ng/ml BMP4, FIG. 15 sample 6

B1: BMP4: Bone Morphogenetic Protein 4, TGF-beta superfamily member (protein, UniProt P12644 293-408, looked up)
Bone morphogenetic protein 4: SPKHHSQRARKKNKNCRRHSLYVDFSDVGWNDWIVAPPGYQAFYCHGDCPFPLADHLNSTNHAIVQTLVNSVNSSIPKACCVPTELSAISMLYLDEYDKVVLKNYQEMVVEGCGCR
How did the “expression of C19ORF80 transcript” value ([1]; HyStem beads supplemented with 10 ng/ml BMP4, FIG. 2) turn out when B1 was run?
Its value is “highest expression”.

What about the PCK1 transcript expression ([1]; HyStem beads with 10 ng/ml BMP4 or 100 ng/ml BMP7, FIG. 5) of the same molecule?
The PCK1 transcript expression was “relatively high levels”.

And the “viability as measured by RNA yields and levels of the BAT markers” value ([2]; NP110SM, 50 ng/ml of BMP4, 5 μm rosiglitazone, embedded in HyStem beads, 14-21 days)?
Its value is “highest viability”.

What about the ADIPOQ expression [2, 3] of the same molecule?
The ADIPOQ expression was “markedly up-regulating”.

What about the C19ORF80 expression [2, 3] of the same molecule?
The C19ORF80 expression was “markedly up-regulating”.

What about the UCP1 expression [2, 3] of the same molecule?
Its UCP1 expression is “low or undetectable level”.

And the “expression of C19ORF80 transcript” value ([2]; NP110SM, HyStem beads supplemented with 10 ng/ml BMP4, FIG. 2)?
Its value is “highest expression”.

And the “viability of differentiating NP110SM cells as evidenced by RNA yields” value ([2]; addition of 50 ng/ml BMP4 to 5.0 μM rosiglitazone)?
Its value is “appeared to improve the viability”.
